Data from the supplement of paper PMC9170038.

Test system: K4 kissing-loop RNA reporter
Assay: apparent KD of K4 kissing-loop reporter; higher = weaker reporter binding
Conditions: Eterna round: R107
Protocol: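 RNA-MaP round R107: designed RNA switches with theophylline, tryptophan, arginine or FMN aptamers are transcribed on-chip within common flanks. They are titrated with a labelled K4 kissing-loop RNA reporter in RNA-MaP buffer (100 mM Tris pH 7.5, 80 mM KCl, 4 mM MgCl2), without ligand or with the indicated ligand. Median apparent KD per design.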

[1] = input ligand: theophylline 20 uM
[2] = input ligand: tryptophan 2.4 mM
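Note: bound reporter read as fluorescence of individual clusters on recovered sequencing chips by microscopy, with normalized cluster intensities fitted with a binding model.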

Row | Sequence | apparent KD of K4 kissing-loop reporter (input ligand: FMN 200 uM) | apparent KD of K4 kissing-loop reporter (input ligand: arginine 13.2 mM) | apparent KD of K4 kissing-loop reporter (input ligand: none) | apparent KD of K4 kissing-loop reporter [1] | apparent KD of K4 kissing-loop reporter [2]
1 | GGAGUUACCUGGGAUACCAGUCGGAGUCCCAGAGCUCAGAGUGAUGUUCUGGGAUGUUUCGGCCCUUGGCAGCUCUGGGACUCCC [#2 Exclusion - Theophylline B Attempt #12 (HarryS)] | 535 nM | 509 nM | 637 nM | 599 nM | 466 nM
2 | GGAGUUACCUGGGAUACCAGUCGGAGUCUCAGAGCUCGGAGUGAUGUUCUGGGAUGUUUCGGCCCUUGGCAGCUCUGGGACUCCA [#2 Exclusion - Theophylline B Attempt #16 (HarryS)] | 924 nM | 627 nM | 863 nM | 843 nM | 707 nM
3 | GGAUAGGACAGAGGAUAUGGACAGUCUACAAAGUAGGCUGAAAAUCCUUGAAUGGAAGUGAUGUUUCCAGAAGGCUGUCCUAUCG [FmnBX 20 - #SwitchBubble #StaticStem #Palindromic] | 558 nM | 145 nM | 165 nM | 164 nM | 150 nM
4 | GGAUAGGACAGAGGAUAUGGUAGCUAGGCAAGAAUAACUUGUCUAGCAUCCAUGAGGAGUGAUGUUCCAGAAGGCUGUCCUAUCG [FmnBX 5 - #SwitchBubble #StaticStem] | 235 nM | 145 nM | 211 nM | 150 nM | 165 nM
5 | GGAUAGGAGAGAGGAUAUGGGCUAGGCAAGAAUAACUUGUCUAGCAAAUCCAUGAGGAGUGAUGUUCCAGAAGGCUCUCCUAUCG [FmnBX 1 G9+C77] | 996 nM | 148 nM | 153 nM | 143 nM | 139 nM
6 | GGAUAGGAUAGAGGAUAUGGACUAGGCAAGAAUAACUUGUCUAGUAAAUCCAUGAGGAGUGAUGUUCCAGAAGGCUGUCCUAUCG [MatMod 3 - Jieux - Exclusion - FMN B] | 514 nM | 200 nM | 226 nM | 224 nM | 185 nM
7 | GGAUAGGAUAGAGGAUAUGGUUUAUGCAGAAAUAACUUAUUGUGUAAAUCCAUAGGGAGUGAUGUUCCAGAAGGCUGUCCUAUCG [MatMod 15 - Jieux - Exclusion - FMN B] | 316 nM | 187 nM | 209 nM | 241 nM | 180 nM
8 | GGAUCCACCAGUGAUGUUGGAGAAAACUCCAAGGAUAUGACGAAAGUCAGAAGGUGGUAGACUGGGCAAAGUCCGGUCGGAUCCA [FmnA10 G66] | 3150 nM | 68.5 nM | 144 nM | 49.9 nM | 355 nM
9 | GGAUCCACCAGUGAUGUUGGAGAAAACUCCGAGGAUAUGACGAAAGUCAGAAGGUGGUAGACUGGACAAAGUCCGGUCGGAUCCA [FmnA 24 #SwitchBubble #K4Early] | 790 nM | 83.3 nM | 288 nM | 162 nM | 101 nM
10 | GGCACGGGCUCGGCCGCCACUCCCGCGGGUCGAAAGGUCCGCUACUGAGUGAUGUUCGGUUGGAGGAGGACCGGGAGCCCGUGCC [#2 Exclusion - Tryptophan B Attempt #23 (HarryS)] | 130 nM | 91.6 nM | 108 nM | 99.9 nM | 98.4 nM
11 | GGCACUUUUGGUAGGAACCAUCUACCUCUAUAGGAUAUGCCGAAAGGCAGAAGGAUAGACCUACAGAGUGAUGUUCUGCGUGCCU | 573 nM | 150 nM | 330 nM | 203 nM | 211 nM
12 | GGCAGUGAUGUUGCCUAAGCAACGCAUGCGGAGGAUAUUCGUUCGGGAAGAAGGCCGCAGCGUUCUCUCGCGAGUGAUGUUCGCA [Same State FMN A GF 22] | 158 nM | 160 nM | 173 nM | 166 nM | 147 nM
13 | GGCAUCCAUGGACCUAGUGAUGUUAGGUACCGAGGACCGGUACGGCCGCCACUCGGCCAUGGAUGCCGCAAUCGGAAACGAUUGC | 406 nM | 243 nM | 408 nM | 460 nM | 345 nM
14 | GGCCAAAGAGAGUGAUGUUCUCAAUAUGAAGGAGCGCCCGAAAGGGCAGGUAGGUCGCAUAACGGCCACCUACGAAAAGUAGGAA [#SwitchBubble 4 #K4Early] | 91.3 nM | 96.6 nM | 94.5 nM | 109 nM | 96.5 nM
15 | GGCCACGGGCGAGGAUAUGGGCAUGAUUCAUCCUGGAGUGAUGUUCCAGGUCCUACGUUUCUAGCACCAGAAGGCGUUUGUUGCU [Enistein] | 131 nM | 196 nM | 215 nM | 180 nM | 165 nM
16 | GGCGGCCGCGCGCAAGCGCGGCCGGCCGAUACCAGCGCGACGGCGCGCCCUUGGCAGCGGCGCCGAGUGAUGUUCGGCCUGCCGU [#2 Same State - Theophylline A Attempt #15 (HarryS)] | 151 nM | 81.1 nM | 146 nM | 94.2 nM | 96.4 nM
17 | GGGAAUUACGGAGGAUAUGCACUGAGGAGGAGAAUAUAGUGAUGUUAUAUAAGAGGAAGGAGAAGAGUAGAAGGCCGUGGAAAGG [SSFMNB.D] | 226 nM | 161 nM | 203 nM | 217 nM | 141 nM
18 | GGGAGUAGUGCGGCCGCCACUGAGAAAGAAGAAGAAUAUAGUGAUGUUAUAUAGGAAUUAAAGAACAGGACCGGGCAUUAGAUUU [SSTRyptB.O] | 210 nM | 208 nM | 219 nM | 163 nM | 143 nM
19 | GGGUGGCAGGCGGCCGCCACUCUGAGCAGCCAGUGAGUGAUGUUCGUGGCGGAAGAAUGUUCGUAGAGGACCGGGUUUGUUGUUC [Same State Tryptophan B GF 22] | 472 nM | 245 nM | 297 nM | 432 nM | 337 nM
20 | GGUAGCAUGGCGGCCGCCACUCUUCAUUAGUGAUGUUAAUGCCGAGUGCGCUAACUCCAACUGGAGAGGACCGGGCCAUGCUACC | 182 nM | 122 nM | 288 nM | 440 nM | 76 nM
21 | GGUAGCAUGGCGGCCGCCACUCUUCAUUAGUGAUGUUAAUGCCGAGUGCGCUAACUCCUACGGGAGAGGACCGGGCCAUGCUACC | 1220 nM | 4.43 nM | 25.8 nM | 919 nM | 14.6 nM
